Earlier results, collected in publication PMC10818705.

Biological target: Tyr109 (UniProt position 129, EGEHFYFFCTF)

Substance: Azurin, His107/Tyr109 (Lys122) hopping variant (Pseudomonas aeruginosa; W48F;Y72F;Y108F;H83Q;Q107H;M109Y)
- pKa: 10.2 ± 0.3
